Assay results published in publication PMC10786891, “Massively parallel profiling of RNA-targeting CRISPR-Cas13d”.
Positions count from the first letter of the chain named. In names and notes the source's numbering stands.

T1: EsCas13d, nuclease-dead (Eubacterium siraeum, UniProt B0MS50, R295A;H300A;R849A;H854A)
T1 sequence: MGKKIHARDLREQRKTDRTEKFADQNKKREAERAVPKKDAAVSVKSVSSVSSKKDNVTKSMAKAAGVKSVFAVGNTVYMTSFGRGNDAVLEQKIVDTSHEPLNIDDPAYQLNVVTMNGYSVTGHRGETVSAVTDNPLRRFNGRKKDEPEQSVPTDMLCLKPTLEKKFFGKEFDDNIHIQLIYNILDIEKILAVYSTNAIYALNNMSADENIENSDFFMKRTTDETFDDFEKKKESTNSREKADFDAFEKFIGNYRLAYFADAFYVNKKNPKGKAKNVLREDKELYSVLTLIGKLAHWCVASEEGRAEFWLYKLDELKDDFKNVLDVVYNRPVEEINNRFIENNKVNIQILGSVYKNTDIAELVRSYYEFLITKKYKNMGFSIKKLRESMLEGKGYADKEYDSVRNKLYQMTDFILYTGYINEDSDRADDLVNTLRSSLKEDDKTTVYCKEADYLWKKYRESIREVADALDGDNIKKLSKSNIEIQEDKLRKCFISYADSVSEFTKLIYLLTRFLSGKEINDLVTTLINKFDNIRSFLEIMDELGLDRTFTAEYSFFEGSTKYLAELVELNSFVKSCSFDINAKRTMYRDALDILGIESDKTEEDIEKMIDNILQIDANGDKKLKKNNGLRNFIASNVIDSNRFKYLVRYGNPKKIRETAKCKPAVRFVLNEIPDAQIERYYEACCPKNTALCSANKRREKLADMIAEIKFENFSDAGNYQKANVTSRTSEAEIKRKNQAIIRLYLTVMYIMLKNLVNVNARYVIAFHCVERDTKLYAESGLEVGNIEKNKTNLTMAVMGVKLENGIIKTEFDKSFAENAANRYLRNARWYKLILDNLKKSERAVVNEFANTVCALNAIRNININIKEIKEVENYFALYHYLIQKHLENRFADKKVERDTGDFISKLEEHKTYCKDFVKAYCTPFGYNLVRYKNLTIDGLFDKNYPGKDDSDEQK

B1: target 2 MT 5'PFS GUU 3'PFS CUU (mixed)
RNA 1: CACCCGUGCAAAAUUGCAGGGGUCUAAAACCUUCUCCAAAUUGUUUCAUCCU
RNA 2: GGGAAUGGAUCCACAUCUACGAAUUCGUUAGGAUGAAACAAUUUGGAGAAGCUUAGAUCGGAAGAGCACACGU
B2: target 2 MT 5'PFS GCA 3'PFS UCU (mixed)
RNA 1: B1 RNA 1
RNA 2: B1 RNA 2 with U28C, U29A, C52U, U53C
B3: target 2 MT 5'PFS UUU 3'PFS CCG (mixed)
RNA 1: B1 RNA 1
RNA 2: B1 RNA 2 with G27U, U53C, U54G
B4: target 2 MT 5'PFS UGG 3'PFS UUC (mixed)
RNA 1: B1 RNA 1
RNA 2: B1 RNA 2 with G27U, U28G, U29G, C52U, U54C
B5: target 2 MT 5'PFS CAU 3'PFS UAC (mixed)
RNA 1: B1 RNA 1
RNA 2: B1 RNA 2 with G27C, U28A, C52U, U53A, U54C
B6: target 2 MT 5'PFS CAU 3'PFS UAA (mixed)
RNA 1: B1 RNA 1
RNA 2: B1 RNA 2 with G27C, U28A, C52U, U53A, U54A
B7: target 1 insA 3' of 21,insU 3' of 13 (mixed)
RNA 1: CACCCGUGCAAAAAUGCAGGGGUCUAAAACUGAGCGGAUAACCUCUCUAUGG
RNA 2: GGGAAUGGAUCCACAUCUACGAAUUCGUACCAAUAGAGAGUGUUAUCCGCUCACCGAGAUCGGAAGAGCACACGU
B8: target 2 MT 5'PFS CAU 3'PFS UAG (mixed)
RNA 1: B1 RNA 1
RNA 2: B1 RNA 2 with G27C, U28A, C52U, U53A, U54G
B9: target 2 MT 5'PFS GCU 3'PFS CAC (mixed)
RNA 1: B1 RNA 1
RNA 2: B1 RNA 2 with U28C, U53A, U54C
B10: target 2 MT 5'PFS CAU 3'PFS UAU (mixed)
RNA 1: B1 RNA 1
RNA 2: B1 RNA 2 with G27C, U28A, C52U, U53A
B11: target 2 MT 5'PFS GAG 3'PFS CUC (mixed)
RNA 1: B1 RNA 1
RNA 2: B1 RNA 2 with U28A, U29G, U54C
B12: target 2 MT 5'PFS GAG 3'PFS CUA (mixed)
RNA 1: B1 RNA 1
RNA 2: B1 RNA 2 with U28A, U29G, U54A
B13: target 2 MT 5'PFS GAG 3'PFS CUG (mixed)
RNA 1: B1 RNA 1
RNA 2: B1 RNA 2 with U28A, U29G, U54G
B14: target 2 MT 5'PFS CUU 3'PFS UCA (mixed)
RNA 1: B1 RNA 1
RNA 2: B1 RNA 2 with G27C, C52U, U53C, U54A
B15: target 2 MT 5'PFS CUU 3'PFS UCC (mixed)
RNA 1: B1 RNA 1
RNA 2: B1 RNA 2 with G27C, C52U, U53C, U54C
B16: target 2 MT 5'PFS CUU 3'PFS UCG (mixed)
RNA 1: B1 RNA 1
RNA 2: B1 RNA 2 with G27C, C52U, U53C, U54G
B17: target 2 MT 5'PFS GGU 3'PFS CUA (mixed)
RNA 1: B1 RNA 1
RNA 2: B1 RNA 2 with U28G, U54A
B18: target 1 U3G,U19A (mixed)
RNA 1: B7 RNA 1
RNA 2: GGGAAUGGAUCCACAUCUACGAAUUCGUACCAAAGAGAGGUUAUCCGCGCACCGAGAUCGGAAGAGCACACGU
B19: target 2 MT 5'PFS GGU 3'PFS CUC (mixed)
RNA 1: B1 RNA 1
RNA 2: B1 RNA 2 with U28G, U54C
B20: target 2 MT 5'PFS GGU 3'PFS CUG (mixed)
RNA 1: B1 RNA 1
RNA 2: B1 RNA 2 with U28G, U54G
B21: target 2 MT 5'PFS AGG 3'PFS ACG (mixed)
RNA 1: B1 RNA 1
RNA 2: B1 RNA 2 with G27A, U28G, U29G, C52A, U53C, U54G
B22: target 2 MT 5'PFS CUU 3'PFS UCU (mixed)
RNA 1: B1 RNA 1
RNA 2: B1 RNA 2 with G27C, C52U, U53C
B23: target 2 MT 5'PFS AGU 3'PFS AUU (mixed)
RNA 1: B1 RNA 1
RNA 2: B1 RNA 2 with G27A, U28G, C52A
B24: target 2 MT 5'PFS GUA 3'PFS UUU (mixed)
RNA 1: B1 RNA 1
RNA 2: B1 RNA 2 with U29A, C52U
B25: target 2 MT 5'PFS AAG 3'PFS CAU (mixed)
RNA 1: B1 RNA 1
RNA 2: B1 RNA 2 with G27A, U28A, U29G, U53A
B26: target 2 MT 5'PFS CGA 3'PFS UCA (mixed)
RNA 1: B1 RNA 1
RNA 2: B1 RNA 2 with G27C, U28G, U29A, C52U, U53C, U54A
B27: target 2 MT 5'PFS AGU 3'PFS AUA (mixed)
RNA 1: B1 RNA 1
RNA 2: B1 RNA 2 with G27A, U28G, C52A, U54A
B28: target 2 MT 5'PFS GUA 3'PFS UUC (mixed)
RNA 1: B1 RNA 1
RNA 2: B1 RNA 2 with U29A, C52U, U54C
B29: target 1 del4,del7 (mixed)
RNA 1: B7 RNA 1
RNA 2: GGGAAUGGAUCCACAUCUACGAAUUCGUACCAUAGAGAGGUUAUCGUCACCGAGAUCGGAAGAGCACACGU
B30: target 2 MT 5'PFS AGU 3'PFS AUC (mixed)
RNA 1: B1 RNA 1
RNA 2: B1 RNA 2 with G27A, U28G, C52A, U54C
B31: target 2 MT 5'PFS GUA 3'PFS UUA (mixed)
RNA 1: B1 RNA 1
RNA 2: B1 RNA 2 with U29A, C52U, U54A
B32: target 2 MT 5'PFS AAG 3'PFS CAG (mixed)
RNA 1: B1 RNA 1
RNA 2: B1 RNA 2 with G27A, U28A, U29G, U53A, U54G
B33: target 2 MT 5'PFS UUC 3'PFS AUA (mixed)
RNA 1: B1 RNA 1
RNA 2: B1 RNA 2 with G27U, U29C, C52A, U54A
B34: target 2 MT 5'PFS AAG 3'PFS CAC (mixed)
RNA 1: B1 RNA 1
RNA 2: B1 RNA 2 with G27A, U28A, U29G, U53A, U54C
B35: target 2 MT 5'PFS CUG 3'PFS CCU (mixed)
RNA 1: B1 RNA 1
RNA 2: B1 RNA 2 with G27C, U29G, U53C
B36: target 2 MT 5'PFS AUG 3'PFS ACG (mixed)
RNA 1: B1 RNA 1
RNA 2: B1 RNA 2 with G27A, U29G, C52A, U53C, U54G
B37: target 2 MT 5'PFS CUG 3'PFS CCG (mixed)
RNA 1: B1 RNA 1
RNA 2: B1 RNA 2 with G27C, U29G, U53C, U54G
B38: target 2 MT 5'PFS CUG 3'PFS CCA (mixed)
RNA 1: B1 RNA 1
RNA 2: B1 RNA 2 with G27C, U29G, U53C, U54A

These binders were tested against T1, EsCas13d, nuclease-dead (assay: crRNA (strand 1, pre-loaded); Mg2+; 40 mM Tris-HCl pH 7.5, 150 mM NaCl, 6 mM MgCl2, 1 mM DTT, 0.1% Tween-20, 0.2 mg/ml BSA; 25 C; 10 min per concentration, then washed). Settings: tags: His6-TwinStrep-SUMO cleaved; N-terminal SNAP kept (SNAP-Surface 488); label: 3' end held by stalled T7 RNA polymerase.

| Binder | Kd |
| --- | --- |
| B1 | 16.6 ± 1.6 nM |
| B2 | 27 ± 12 nM |
| B3 | 9.8 ± 1 nM |
| B4 | 19.2 ± 2.8 nM |
| B5 | 3.7 ± 0.7 nM |
| B6 | 4.7 ± 0.8 nM |
| B7 | 26 ± 9 nM |
| B8 | 5.6 ± 1.2 nM |
| B9 | 10 ± 1.7 nM |
| B10 | 4 ± 0.4 nM |
| B11 | 11.3 ± 1.2 nM |
| B12 | 7.9 ± 1.1 nM |
| B13 | 8.1 ± 0.8 nM |
| B14 | 4.8 ± 0.5 nM |
| B15 | 8.2 ± 0.5 nM |
| B16 | 4.6 ± 0.4 nM |
| B17 | 12.6 ± 1.4 nM |
| B18 | 45 ± 10 nM |
| B19 | 17.8 ± 1.9 nM |

| Binder | Kd |
| --- | --- |
| B20 | 14 ± 1.3 nM |
| B21 | 6.7 ± 0.6 nM |
| B22 | 8.1 ± 0.8 nM |
| B23 | 12.1 ± 2.1 nM |
| B24 | 62 ± 18 nM |
| B25 | 3.4 ± 0.5 nM |
| B26 | ~26 nM |
| B27 | 10.3 ± 1.5 nM |
| B28 | 42 ± 11 nM |
| B29 | 5.34 ± 0.24 nM |
| B30 | 16.7 ± 3.2 nM |
| B31 | 22 ± 4 nM |
| B32 | 4.2 ± 0.7 nM |
| B33 | 16 ± 5 nM |
| B34 | 2.9 ± 1 nM |
| B35 | 57 ± 22 nM |
| B36 | 12.6 ± 2.1 nM |
| B37 | 4.06 ± 0.2 nM |
| B38 | 14.9 ± 3.1 nM |
